The subject of the series is MS2 coat protein. Put plainly: apparent KD of MS2 coat protein; designed switch direction (-1 OFF switch, 1 ON switch): -1; higher = weaker reporter binding. In outline:
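Stalled E. coli RNA polymerase transcribed designed RNA switches on Illumina chips, which were then titrated with SNAP-549-labelled MS2 coat protein, doubling from 0.7 or 1.5 nM to 3 µM. Steps lasted from 0.8–1.5 h at the lowest concentration to 10–20 min at the highest. The apparent KD is each design's median over clusters of curve-fitted normalised fluorescence.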

Where [1] appears, read: input ligand: microRNA oligo, concentration not stated.
The mark [2] stands for this setting: Eterna round: R95, input ligand: FMN 200 uM.
Setting [3] is: Eterna round: R95, input ligand: microRNA oligo, concentration not stated.
[4] abbreviates: Eterna round: R95, input ligand: none.

As for “AACAGUACAGGAUAUACAUGAGGAUCACCCAUGUGAGAAUUAAGUGGCGAACCACAAAGUAGAAGGGUACUGGA [Mat - Exclusion 3 - JL mod - D1] (Eterna round: R96, puzzle: Exclusion 3)”, the “apparent KD of MS2 coat protein” value came out at 98.2 nM (input ligand: FMN 200 uM), 38.5 nM under setting [1] and 46.3 nM (input ligand: none).

Consider “AACAGUAGAGGAUAUACACGAACAAACAUGAGGAUCACCCAUGUGAAACCGUGCUGUCCGGUAGAAGGCUACUAUA [Zavetiaton] (Eterna round: R97, puzzle: Exclusion 5)”, for which the “apparent KD of MS2 coat protein” value is, setting by setting: (input ligand: FMN 200 uM) 40.6 nM; (input ligand: none) 17.4 nM.

“AACCUGAGGCAAAGCUUUAGGUGUACAUGAGGAUCACCCAUGUAGGAUAUGGUAGGCAAAGCUUACCAGAAGGACAUUAUGAUA [Mat - Exclusion NG 3 - Mod of JL - D52] (Eterna round: R96, puzzle: Exclusion NG 3)”: the “apparent KD of MS2 coat protein” value is 66.9 nM (input ligand: FMN 200 uM), 44 nM under setting [1] and 53.1 nM (input ligand: none).

Consider “AACCUGAGGCUUUGCUUUAGGUGUACAUGAGGAUCACCCAUGUAGGAUAUGGUAGGCUUUGCUUACCAGAAGGACAUUAUGAUU [JL ENG3 1.18] (Eterna round: R96, puzzle: Exclusion NG 3)”, for which the “apparent KD of MS2 coat protein” value runs as follows: (input ligand: FMN 200 uM) 119 nM; under setting [1], 33.4 nM; (input ligand: none) 37.1 nM.

As for “AACGAAGCAGGAUAUACAUGAGGAUCACCCAUGUGCUUGCAUGGCGUGGGAAGUCAUAGUAGAAGGGCUACGCC [EX3 #62] (Eterna round: R97, puzzle: Exclusion 3)”, the “apparent KD of MS2 coat protein” value turned out to be 53.6 nM (input ligand: FMN 200 uM) and 22.1 nM (input ligand: none).

Consider “AACGAGUGAGGAUAUCUUGACGGUUUGCAUCAGGCCCUCACAGAGAAGGCACUUGAGGAUCACCCAAGUGACCA [Eredgeinus] (Eterna round: R97, puzzle: Exclusion 4)”, for which the “apparent KD of MS2 coat protein” value reads like this: (input ligand: FMN 200 uM) 16.5 nM; (input ligand: none) 14.2 nM.

Turning to “AACGUACAGCAAAGCUGUACGCGUACAUGAGGAUCACCCAUGUAGGAUAUGGUAGGCAAAGCUUACUAGAAGGAUAGAGUGAUC [Mat - Exclusion NG 3 - Mod of JL - D77] (Eterna round: R96, puzzle: Exclusion NG 3)”, the “apparent KD of MS2 coat protein” value reads like this: (input ligand: FMN 200 uM) 497 nM; under setting [1], 358 nM; (input ligand: none) 333 nM.

For “AACUAACAUGUAGGAUAUGCGUGGCGAAGCUAUGCAGAAGGACAUGAGGAUCACCCAUGUUUUAGCGUCUGCGUACAGAUGCAU [JL ENG1 1.41] (Eterna round: R96, puzzle: Exclusion NG 1)”, the “apparent KD of MS2 coat protein” value runs as follows: (input ligand: FMN 200 uM) 146 nM; under setting [1], 16.6 nM; (input ligand: none) 20.8 nM.

Consider “AACUAGGCAGGAUAUACAUGAGGAUCACCCAUGUGCCAAUACAAAGGGACUAACAGAGGUAGAAGGGCCUAGAA [ChP 13.04.2015 #2] (puzzle: Exclusion 3)”, for which the “apparent KD of MS2 coat protein” value came to 155 nM under setting [2], 36.8 nM under setting [3] and 34.3 nM under setting [4].

As to “AACUGAUCUUGAGGAUAUCAAACACAUGAGGAUCACCCAUGUCACGAGACGGUGCUUUCCAGGAGUGAGAAGGUAAGCAGCGAG [Eternabot solution 44] (Eterna round: R96, puzzle: Exclusion NG 2)”, the “apparent KD of MS2 coat protein” value reads like this: (input ligand: FMN 200 uM) 31 nM; under setting [1], 28 nM; (input ligand: none) 37.1 nM.

Take “AACUGGACAGGAUAUGUUCUUGAGCACUUGAGGAUCACCCAAGUCAUCAAGAACUCAGGCACAGAAGGGUUUAUGA [jl-ex5.4.60 ViennaUCT mod] (Eterna round: R97, puzzle: Exclusion 5)”: the “apparent KD of MS2 coat protein” value runs as follows: (input ligand: FMN 200 uM) 28.9 nM; (input ligand: none) 13.4 nM.

For the sequence “AAGAAACAUGAGGAUCACCCAUGUCAGGAUAUCUCGAAAAGCAUAGAAAUAUGCGAAGAGAGAAGGGACUGCCC [ChP Ext 10-04-2015 #2] (puzzle: Exclusion 1)”, the “apparent KD of MS2 coat protein” value by setting is: under setting [2], 20.8 nM; under setting [3], 19.3 nM; under setting [4], 19.2 nM.

For the sequence “AAGAAACAUGAGGAUCACCCAUGUGAGGAUAUGAAAAAGAAAAGAAAAGAAAGAAGGAUCAGAAGGCACAAAGG [salish99-ex1_r3_025] (puzzle: Exclusion 1)”, the “apparent KD of MS2 coat protein” value runs as follows: under setting [2], 43 nM; under setting [3], 30.3 nM; under setting [4], 34.1 nM.

Regarding “AAGAAACAUGAGGAUCACCCAUGUGAGGAUAUGAAAAAGAAAAUAAAAUAAAGAAGAAUCAGAAGGCACAAAGG [Mat - Mod of Hog D4] (puzzle: Exclusion 1)”, the “apparent KD of MS2 coat protein” value runs as follows: under setting [2], 34 nM; under setting [3], 24.9 nM; under setting [4], 28.1 nM.

As for “AAGAAACAUGAGGAUCACCCAUGUGAGGAUAUGACUAAGAAAAGAAAAGAAAGAAGAGUCAGAAGGCACAAAGG [salish99-ex1_r3_068] (puzzle: Exclusion 1)”, the “apparent KD of MS2 coat protein” value was 215 nM under setting [2], 128 nM under setting [3] and 189 nM under setting [4].

For “AAGAAACAUGAGGAUCACCCAUGUGAGGAUAUGAGGAAGAAAAGAAAAGAAAGAAGACUCAGAAGGCACAAAGG [salish99-ex1_r3_073] (puzzle: Exclusion 1)”, the “apparent KD of MS2 coat protein” value runs as follows: under setting [2], 189 nM; under setting [3], 49 nM; under setting [4], 76.8 nM.

“AAGAAACAUGAGGAUCACCCAUGUGAGGAUAUGAUAAAGAAAAGAAAAGAAAGAAGAUUCAGAAGGCACAAAGG [salish99-ex1_r3_034] (puzzle: Exclusion 1)”: the “apparent KD of MS2 coat protein” value by setting is: under setting [2], 62.3 nM; under setting [3], 39.4 nM; under setting [4], 48.7 nM.

Regarding “AAGAAACAUGAGGAUCACCCAUGUGAGGAUAUGAUGCGAAUUAUGUAUGUAGUAAGCAUCAGAAGGCACAAAGG [Mat - Mod Mix D39] (puzzle: Exclusion 1)”, the “apparent KD of MS2 coat protein” value under setting [3] came out at 142 nM.

Turning to “AAGAAACAUGAGGAUCACCCAUGUGAGGAUAUGAUUAAGAAAAGAAAAGAAAGAAGAUUCAGAAGGCACAAAGG [salish99-ex1_r3_054] (puzzle: Exclusion 1)”, the “apparent KD of MS2 coat protein” value runs as follows: under setting [2], 91.4 nM; under setting [3], 72.5 nM; under setting [4], 82.9 nM.

Take “AAGAAACAUGAGGAUCACCCAUGUGAGGAUAUGGCCCGCCCGGCGUAAGCAAAAUAAAUCAGAAGGCACAAAGG [salish99_ex1_r4_008] (Eterna round: R97, puzzle: Exclusion 1)”: the “apparent KD of MS2 coat protein” value is, setting by setting: (input ligand: FMN 200 uM) 39.5 nM; (input ligand: none) 47.2 nM.

With “AAGAAACAUGAGGAUCACCCAUGUGAGGAUAUGUAAAAGAAAAUAAAAUAAAUAAGAAACAGAAGGCACAAAGG [Mat - Mod of Hog D19] (puzzle: Exclusion 1)”, the “apparent KD of MS2 coat protein” value is, setting by setting: under setting [2], 53.2 nM; under setting [3], 39.2 nM; under setting [4], 44.8 nM.

“AAGAAACGAGGAUAUACAAUUGAGUGAGAGAGGGAAGUGUGACAUGAGGAUCACCCAUGUAGAAGGCGUGAGAG [JR_Exclu2_Sub086] (puzzle: Exclusion 2)”: the “apparent KD of MS2 coat protein” value is, setting by setting: under setting [2], 116 nM; under setting [3], 82.3 nM; under setting [4], 80.4 nM.

Consider “AAGAAGAAACAAGCUUUUUGCACGUCAGGUAGUGACGCAACAUGAGGAUCACCCAUGUAUAGGGUGGGAAAGGAUAG [JR_SV3TOV2_Sub048] (puzzle: Sensor v3, turn-off variant 2)”, for which the “apparent KD of MS2 coat protein” value reads like this: under setting [2], 34 nM; under setting [3], 30.9 nM; under setting [4], 303 nM.

On to “AAGAAGCAAGGAUAUACAACGGGCCACAGAGCCGAAGGGCAACAUGAGGAUCACCCAUGUAGAAGGUGCGUAAC [Lecebeqube] (puzzle: Exclusion 2)”, for which the “apparent KD of MS2 coat protein” value reads like this: under setting [2], 149 nM; under setting [3], 30.3 nM; under setting [4], 28.2 nM.

Regarding “AAGAAGUCAGGAUAUGCUAAAGAAAUAAAAAGAAAGAAAGAACAUGAGGAUCACCCAUGUAGAAGGGACAAGAA [Seheqenre Sankhptahi] (Eterna round: R96, puzzle: Exclusion 2)”, the “apparent KD of MS2 coat protein” value under setting [1] came out at 31.8 nM.

For “AAGAAUCAAGGAUAUGCAUGAUACGACAUGAGGAUCACCCAUGUCCUCACGCGUAUCCUUGCAGAAGGUGAGUAUA [EX5 A.22] (Eterna round: R97, puzzle: Exclusion 5)”, the “apparent KD of MS2 coat protein” value (input ligand: FMN 200 uM) amounted to 15 nM and the “apparent KD of MS2 coat protein” value (input ligand: none) came to 15.3 nM.

With “AAGAUGCGGGUAGGAUAUGGAAAUUAAUAAAGACCAGAAGGACUGGUCACACAACAUGAGGAUCACCCAUGUGUGUGUUGUGAA [AK ExNG1-6] (Eterna round: R96, puzzle: Exclusion NG 1)”, under setting [1], the “apparent KD of MS2 coat protein” value is 9.06 nM.

As for “AAGCACGCGUAGGAUAUAAUCCAAACCUCGAGGUUAGAAGGACGCACAUGAGGAUCACCCAUGUUCCUAGCAUC [Eternabot (Original) Solution 19] (Eterna round: R97, puzzle: Exclusion 6)”, the “apparent KD of MS2 coat protein” value worked out at 20.7 nM (input ligand: FMN 200 uM) and 17.1 nM (input ligand: none).

“AAGCGACGAGGAUAUCGGUGGCUGAACAUGAGGAUCACCCAUGUGAACCGAUGGCAGUGUCGAGAAGGUGUUGAGU [Teceenla] (puzzle: Exclusion 5)”: the “apparent KD of MS2 coat protein” value under setting [3] came to 12.3 nM.

On to “AAGGAGUGAGGAUAUGCGCGGGCACGCUCUAAAUAAGAAAGACAUGAGGAUCACCCAUGUAGAAGGCACAAUAA [Leedla] (puzzle: Exclusion 2)”, for which the “apparent KD of MS2 coat protein” value under setting [3] was determined as 17.8 nM.

Regarding “AAGGAUAGAGGAUAUACAUAGAUACAGAUUCGUGUAGAACUACAUGAGGAUCACCCAUGUAGAAGGCUAUCCUA [Fiskers Ex 2 - 7] (puzzle: Exclusion 2)”, the “apparent KD of MS2 coat protein” value under setting [3] turned out to be 15.2 nM.

Source of the values: the supplement of paper PMC9170038.
